Test results from patent US20230295298A1 (PRECISION BIOLOGICS, published 2023).

How the values were obtained:
[1] = molecular target: T1, human A33 antigen, full length, on cells (human, UniProt Q99795 22-319); assay: flow cytometry, AsPC-1 cells, 185.2 ng/ml, experiment 1
T1 construct: CHO cells transfected with full length A33 cDNA (A33-CHO), or endogenous antigen of LS174T (colon) and AsPC-1 (pancreatic) tumour cells; The cell line is named under assay; also called A33-CHO; A33 antigen on LS174T cells
T1 sequence: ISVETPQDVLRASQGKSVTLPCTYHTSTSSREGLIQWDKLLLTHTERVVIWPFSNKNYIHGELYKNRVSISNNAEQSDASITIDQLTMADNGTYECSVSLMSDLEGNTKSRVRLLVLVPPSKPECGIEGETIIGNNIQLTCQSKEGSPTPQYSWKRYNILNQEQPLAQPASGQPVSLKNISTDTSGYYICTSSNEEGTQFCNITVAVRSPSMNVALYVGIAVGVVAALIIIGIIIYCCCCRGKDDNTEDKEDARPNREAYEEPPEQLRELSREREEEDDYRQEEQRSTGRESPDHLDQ

[2] = molecular target: T2, human recombinant A33 antigen (human, UniProt Q99795 22-235); assay: rH-GPA33 binding ELISA, 2ug/mL of 31.1, supernatant
T2 construct: also called rH-GPA33; rHGPA33
T2 sequence: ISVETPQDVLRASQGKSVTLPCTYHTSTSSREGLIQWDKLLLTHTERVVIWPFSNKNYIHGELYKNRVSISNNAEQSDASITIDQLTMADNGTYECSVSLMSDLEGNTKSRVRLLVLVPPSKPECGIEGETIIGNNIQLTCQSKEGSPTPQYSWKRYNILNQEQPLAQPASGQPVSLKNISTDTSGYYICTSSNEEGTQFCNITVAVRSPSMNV
Method: (§1) Human IgG ELISA, rH-GPA33 Binding ELISA, cell Flow Cytometry (LS174T or AsPAC1), IHC staining (LS174T FFPE, tumor FFPE and Frozen tumor sections) and Coomassie blue staining of SDS-PAGE gel were used for the screening. Antibody in the culture supernatant was purified by Protein A/G purification in the column and dissolved in PBS buffer after three times dialysis. Aliquots of the antibodies were kept at -20° C. for storage.
(§2) Each combination was produced by transient transfection by using Expi293 Expression System Kit (Gibco, cat# A14635). […] Methods of Human IgG ELISA, rH-GPA33 Binding ELISA, LS174T cell Flow Cytometry, IHC staining on LS174T FFPE sections and Coomassie blue staining of SDS-PAGE gel were used for the initial screening.

[3] = molecular target: T1, human A33 antigen, full length, on cells; assay: flow cytometry, AsPC-1 cells, 1666.7 ng/ml, experiment 2
[4] = molecular target: T2, human recombinant A33 antigen; assay: rH-GPA33 binding ELISA, first round supernatant
[5] = molecular target: T1, human A33 antigen, full length, on cells; assay: flow cytometry, AsPC-1 cells, 61.7 ng/ml, experiment 2
[6] = molecular target: T1, human A33 antigen, full length, on cells; assay: flow cytometry, AsPC-1 cells, 61.7 ng/ml, experiment 1
[7] = molecular target: T1, human A33 antigen, full length, on cells; assay: flow cytometry, AsPC-1 cells, 555.6 ng/ml, experiment 1
[8] = molecular target: T1, human A33 antigen, full length, on cells; assay: flow cytometry, AsPC-1 cells, 2.3 ng/ml, experiment 1
[9] = molecular target: T1, human A33 antigen, full length, on cells; assay: flow cytometry, AsPC-1 cells, 5000 ng/ml, experiment 2
[10] = molecular target: T1, human A33 antigen, full length, on cells; assay: flow cytometry, AsPC-1 cells, 6.9 ng/ml, experiment 2
[11] = molecular target: T1, human A33 antigen, full length, on cells; assay: flow cytometry, AsPC-1 cells, 555.6 ng/ml, experiment 2
[12] = molecular target: T1, human A33 antigen, full length, on cells; assay: IHC on LS174T FFPE sections, 20ug/mL
Method: as §1, §2

[13] = molecular target: T1, human A33 antigen, full length, on cells; assay: flow cytometry, AsPC-1 cells, 0 ng/ml (background, no antibody), experiment 2
[14] = molecular target: T1, human A33 antigen, full length, on cells; assay: flow cytometry, AsPC-1 cells, 2.3 ng/ml, experiment 2
[15] = molecular target: T1, human A33 antigen, full length, on cells; assay: flow cytometry, AsPC-1 cells, 20.6 ng/ml, experiment 1
[16] = molecular target: T1, human A33 antigen, full length, on cells; assay: flow cytometry, AsPC-1 cells, 0 ng/ml (background, no antibody), experiment 1
[17] = molecular target: T1, human A33 antigen, full length, on cells; assay: flow cytometry, AsPC-1 cells, 20.6 ng/ml, experiment 2
[18] = molecular target: T1, human A33 antigen, full length, on cells; assay: flow cytometry on LS174T cells, 0.37ug/mL
Method: as §1, §2

[19] = molecular target: T1, human A33 antigen, full length, on cells; assay: flow cytometry, AsPC-1 cells, 5000 ng/ml, experiment 1
[20] = molecular target: T1, human A33 antigen, full length, on cells; assay: flow cytometry, AsPC-1 cells, 6.9 ng/ml, experiment 1
[21] = molecular target: T1, human A33 antigen, full length, on cells; assay: flow cytometry, AsPC-1 cells, 185.2 ng/ml, experiment 2
[22] = molecular target: T1, human A33 antigen, full length, on cells; assay: flow cytometry, AsPC-1 cells, 1666.7 ng/ml, experiment 1

B1: humanized 31.1 antibody #11 (sdr31.1-HC + sdr31.1-LC) (antibody, human IgG1, kappa, V domains shown)
VH: QIQLVQSGAEVKKPGASVKVSCKASGYTFTNYGMNWVRQAPGKGLEWMGWINPYTGEPTYAQKFQGRVTFTLDTSISTAYMELSRLRSDDTAVYFCARAYYGKYFDYWGQGTTVTVSS
VL: SIQMTQSPSSLSASVGDRVTITCRASQSISNDLAWYQQKPGQSPKLLIYYASNRYTGVPDRFSGSGYGTDFTLTISSLQPEDFAVYFCQQDYSSPLTFGAGTKLEIKR
notes: Full heavy and light chains; supernatant in the first screen, Protein A/G purified in the third round; used as negative control; also called Sample ID 11; sdr-HC + sdr-LC
Question: How did the MFI [1] turn out when B1 was run?
Answer: The MFI was 8.2 MFI.

Question: And the “OD Value of rH-GPA33 Binding ELISA” value [2]?
Answer: The value was 0.06 OD.

Question: What about the MFI [3] of the same binder?
Answer: The MFI was 39 MFI.

Question: Does B1 bind [4]?
Answer: Result: no binding

Question: And the MFI [5]?
Answer: Its MFI is 5.3 MFI.

Question: And the MFI [6]?
Answer: The MFI was 5.9 MFI.

Question: What about the MFI [7] of the same binder?
Answer: Its MFI is 16.2 MFI.

Question: What about the MFI [8] of the same binder?
Answer: Its MFI is 3.4 MFI.

Question: What about the MFI [9] of the same binder?
Answer: Its MFI is 117 MFI.

Question: And the MFI [10]?
Answer: Its MFI is 3.6 MFI.

Question: And the MFI [11]?
Answer: Its MFI is 16.6 MFI.

Question: And the H-Score of IHC [12]?
Answer: The H-Score of IHC was 160 H-Score.

Question: And the MFI [13]?
Answer: Its MFI is 3.6 MFI.

Question: What about the MFI [14] of the same binder?
Answer: The MFI was 3.5 MFI.

Question: What about the MFI [15] of the same binder?
Answer: Its MFI is 4 MFI.

Question: What about the MFI [16] of the same binder?
Answer: The MFI was 3.6 MFI.

Question: And the MFI [17]?
Answer: The MFI was 4 MFI.

Question: What about the MFI [18] of the same binder?
Answer: The MFI was 5.6 MFI.

Question: What about the MFI [19] of the same binder?
Answer: Its MFI is 117 MFI.

Question: What about the MFI [20] of the same binder?
Answer: The MFI was 3.6 MFI.

Question: What about the MFI [21] of the same binder?
Answer: Its MFI is 8.2 MFI.

Question: And the MFI [22]?
Answer: The MFI was 38.9 MFI.
